This is an account of results in patent publication US20180215833A1 (published 2018).

First the molecules themselves.
T1: llama c-Met ECD (aa 25-932), His tag (Llama glama)
T1 construct: also called Llama glama c-Met
T1 chain: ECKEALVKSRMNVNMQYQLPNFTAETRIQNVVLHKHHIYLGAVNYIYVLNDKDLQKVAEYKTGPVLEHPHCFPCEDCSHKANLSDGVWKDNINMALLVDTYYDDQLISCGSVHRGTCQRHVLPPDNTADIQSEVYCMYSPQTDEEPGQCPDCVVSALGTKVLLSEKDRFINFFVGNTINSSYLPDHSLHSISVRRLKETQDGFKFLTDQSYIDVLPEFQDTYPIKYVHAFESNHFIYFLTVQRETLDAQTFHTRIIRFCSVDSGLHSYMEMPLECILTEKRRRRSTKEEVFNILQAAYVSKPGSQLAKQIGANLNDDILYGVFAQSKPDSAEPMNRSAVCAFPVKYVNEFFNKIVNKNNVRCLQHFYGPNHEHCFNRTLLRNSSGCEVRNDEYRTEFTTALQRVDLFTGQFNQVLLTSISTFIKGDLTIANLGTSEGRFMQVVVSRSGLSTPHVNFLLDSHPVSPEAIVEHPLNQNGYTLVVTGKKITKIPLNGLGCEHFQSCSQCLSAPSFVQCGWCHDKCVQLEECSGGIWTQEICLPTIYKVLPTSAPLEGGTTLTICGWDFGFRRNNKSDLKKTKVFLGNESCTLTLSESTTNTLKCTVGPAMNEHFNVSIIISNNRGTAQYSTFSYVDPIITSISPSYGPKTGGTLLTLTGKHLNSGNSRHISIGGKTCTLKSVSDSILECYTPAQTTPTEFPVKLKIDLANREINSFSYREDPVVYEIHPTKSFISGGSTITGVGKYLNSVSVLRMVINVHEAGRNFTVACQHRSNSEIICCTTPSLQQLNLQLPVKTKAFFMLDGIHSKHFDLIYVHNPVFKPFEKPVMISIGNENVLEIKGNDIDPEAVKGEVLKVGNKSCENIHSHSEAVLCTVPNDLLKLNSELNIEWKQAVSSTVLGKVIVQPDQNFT

T2: human/llama-IPT chimeric c-Met ECD (human; Llama glama, UniProt P08581 25-932)
T2 construct: ranges stand under form; also called human/llama IPT1-4; construct with the human SEMA-PSI
T2 chain: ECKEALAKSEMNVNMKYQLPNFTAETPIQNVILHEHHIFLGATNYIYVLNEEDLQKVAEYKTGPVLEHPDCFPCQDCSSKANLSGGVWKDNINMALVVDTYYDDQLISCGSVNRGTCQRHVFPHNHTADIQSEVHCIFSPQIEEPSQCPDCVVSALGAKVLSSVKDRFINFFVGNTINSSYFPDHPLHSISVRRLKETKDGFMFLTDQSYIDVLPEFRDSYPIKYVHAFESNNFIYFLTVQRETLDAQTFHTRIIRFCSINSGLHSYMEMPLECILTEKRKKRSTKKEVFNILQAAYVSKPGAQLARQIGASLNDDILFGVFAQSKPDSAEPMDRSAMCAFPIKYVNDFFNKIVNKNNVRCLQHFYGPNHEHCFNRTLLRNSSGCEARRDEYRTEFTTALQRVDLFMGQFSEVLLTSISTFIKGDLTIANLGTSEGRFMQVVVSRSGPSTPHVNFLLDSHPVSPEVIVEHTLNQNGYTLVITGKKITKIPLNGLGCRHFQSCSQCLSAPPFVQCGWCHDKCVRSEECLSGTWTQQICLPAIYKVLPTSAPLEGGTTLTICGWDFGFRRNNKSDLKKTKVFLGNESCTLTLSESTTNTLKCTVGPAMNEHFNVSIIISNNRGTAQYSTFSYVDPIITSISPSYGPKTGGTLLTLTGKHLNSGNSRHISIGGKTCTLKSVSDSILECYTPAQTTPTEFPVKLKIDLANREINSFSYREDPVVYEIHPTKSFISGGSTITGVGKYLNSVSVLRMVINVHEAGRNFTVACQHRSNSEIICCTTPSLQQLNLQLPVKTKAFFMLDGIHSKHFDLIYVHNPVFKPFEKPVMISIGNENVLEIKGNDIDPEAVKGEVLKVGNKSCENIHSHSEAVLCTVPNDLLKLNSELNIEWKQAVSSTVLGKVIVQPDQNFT

B1: LS1 (aa1-98) (receptor)
chain: ECKEALVKSRMNVNMQYQLPNFTAETRIQNVVLHKHHIYLGAVNYIYVLNDKDLQKVAEYKTGPVLEHPHCFPCEDCSHKANLSDGVWKDNINMALLVDTYYDDQLISCGSVNRGTCQRHVFPHNHTADIQSEVHCIFSPQIEEPSQCPDCVVSALGAKVLSSVKDRFINFFVGNTINSSYFPDHPLHSISVRRLKETKDGFMFLTDQSYIDVLPEFRDSYPIKYVHAFESNNFIYFLTVQRETLDAQTFHTRIIRFCSINSGLHSYMEMPLECILTEKRKKRSTKKEVFNILQAAYVSKPGAQLARQIGASLNDDILFGVFAQSKPDSAEPMDRSAMCAFPIKYVNDFFNKIVNKNNVRCLQHFYGPNHEHCFNRTLLRNSSGCEARRDEYRTEFTTALQRVDLFMGQFSEVLLTSISTFIKGDLTIANLGTSEGRFMQVVVSRSGPSTPHVNFLLDSHPVSPEVIVEHTLNQNGYTLVITGKKITKIPLNGLGCRHFQSCSQCLSAPPFVQCGWCHDKCVRSEECLSGTWTQQICLPAIYKVFPNSAPLEGGTRLTICGWDFGFRRNNKFDLKKTRVLLGNESCTLTLSESTMNTLKCTVGPAMNKHFNMSIIISNGHGTTQYSTFSYVDPVITSISPKYGPMAGGTLLTLTGNYLNSGNSRHISIGGKTCTLKSVSNSILECYTPAQTISTEFAVKLKIDLANRETSIFSYREDPIVYEIHPTKSFISGGSTITGVGKNLNSVSVPRMVINVHEAGRNFTVACQHRSNSEIICCTTPSLQQLNLQLPLKTKAFFMLDGILSKYFDLIYVHNPVFKPFEKPVMISMGNENVLEIKGNDIDPEAVKGEVLKVGNKSCENIHLHSEAVLCTVPNDLLKLNSELNIEWKQAISSTVLGKVIVQPDQNFT
notes: Ranges count on mature human c-Met
B2: 36C4 (antibody, V domains shown)
VH: QVQLVESGPGLVKPSQTLSLTCAVSGGSITTNYYYWSWIRQSPGKGLEWMGVIAYDGSTDYSPSLKSRTSISRDTSKNQFSLQLSSVTPEDTAVYYCARDVRVIATGWATANALDAWGQGTLVTVSS
VL: QSVLTQPPSVSGSPGKTVTISCAGTSSDVGYGNYVSWYQQLPGTAPKLLIFAVSYRASGIPDRFSGSKSGNTAFLTISGLQSEDEADYYCASYRSSNNAAVFGGGTHLTVL
notes: also called mAb 36C4; SIMPLE antibody 36C4
B3: 48A2 (antibody, V domains shown)
VH: EVQLVQPGVELRNPGASVKVSCKASGYIFTMNSIDWVRQAPGQGLEWMGRIDPEDGGTKYAQKFQGRVTFTADTSTSTAYVELNSLRSEDTAVYYCARVDDYYLGYDYWGQGTQVTVSS
VL: DIVMTQTPTSVTASAGDKVTINCKSSQSVLFSSNQKNYLAWYQQRLGQSPRLLIYWASIRESGVPDRFSGSGSATDFTLTISNFQPEDAAVYYCQQGYSFPYSFGSGTRLEIR
B4: 13E6 (antibody, V domains shown)
VH: QVQLQESGGDLVQPGGSLRLSCAASGFTFDDYVMNWVRQAPGKGLEWISAINWNGGSTYYAESMKGRFTISRDNAKNTLYLQMYSLQSDDTAVYYCVKDTVVSGNGYWGQGTQVTVSS
VL: QSVLTQPPSVSGTLGKTVTISCAGTSSDIGDYNYVSWYQQLPGTAPKLLIYDVNKRASGIPDRFSGSKSGNTASLSISGLQSEDEADYYCASYRSRNDYAFGGGTKLTVL
notes: also called mAb 13E6

The target in experiment [1] is T3, HGF (UniProt P14210 32-728, limits assumed).
T3 construct: also called hepatocyte growth factor
Nature of the experiment: SPR, HGF on CM-5 chip, 10 µg/ml c-Met chimera injected. The procedure:
Surface Plasmon Resonance (SPR) was also used to investigate the binding of the mAbs to the different llama-human c-Met chimeras. 3000 RU of 36C4, 48A2 and HGF were coupled on a CM-5 chip in 10 mM NaAc (pH4.5). 60 μl of a 10 μg/ml solution of the different c-Met chimeras was run over the chip at a flow rate of 30 μl/min and the association for 2 min was evaluated. The chip was regenerated with 20 mM NaOH and 1 M NaCl.
(In SPR one partner is held on a chip, and binding of the other changes the refractive index at the surface.)

Experiment [2] addresses T1, llama c-Met ECD (aa 25-932), His tag. Nature of the experiment: ELISA, 200 ng immobilised c-Met protein.
The target in experiment [3] is T2, human/llama-IPT chimeric c-Met ECD. Kind of experiment: ELISA, 200 ng immobilised c-Met protein, mAb titrated. For orientation: ELISA stands for enzyme-linked immunosorbent assay.
For experiment [4], the target named is human c-Met on cells (MKN-45, A549, HPAF, BxPC3, NCI-H441) (human, UniProt P08581 25-1390). Kind of experiment: cell-based or functional assay.
Experiment [5] concerns the target B1. Nature of the experiment: ELISA, mAb immobilised, c-Met chimera titrated (EC50 of the chimera). The source says: An ELISA was run to investigate the binding of the mAbs to the different chimeras.
Experiment [6] concerns the target Ll8 (aa540-909) (human; Llama glama). The description is as above.
Experiment [7] has as its target LP7* (aa523-909) (human; Llama glama). The experiment is described as above.
Experiment [8] addresses LP6 (aa497-909) (human; Llama glama). Described as above.
For experiment [9], the target named is Ll10 (aa608-909) (human; Llama glama). The experiment is described as above.
The target in experiment [10] is Ll9 (aa572-909) (human; Llama glama). The experiment is described as above.
In experiment [11] the target is Ll11 (aa634-909) (human; Llama glama). The experiment is described as above.
For experiment [12], the target named is LS2 (aa1-199) (Llama glama; human) (UniProt P08581). Described as above.
Experiment [13] deals with LS3 (aa1-287) (Llama glama; human) (UniProt P08581). The description is as above.
The target in experiment [14] is LS4 (aa1-348) (Llama glama; human) (UniProt P08581). The description is as above.
Experiment [15] addresses LS5 (aa1-448) (Llama glama; human) (UniProt P08581). The experiment is described as above.

T3 sequence (P14210 32-728 limits assumed): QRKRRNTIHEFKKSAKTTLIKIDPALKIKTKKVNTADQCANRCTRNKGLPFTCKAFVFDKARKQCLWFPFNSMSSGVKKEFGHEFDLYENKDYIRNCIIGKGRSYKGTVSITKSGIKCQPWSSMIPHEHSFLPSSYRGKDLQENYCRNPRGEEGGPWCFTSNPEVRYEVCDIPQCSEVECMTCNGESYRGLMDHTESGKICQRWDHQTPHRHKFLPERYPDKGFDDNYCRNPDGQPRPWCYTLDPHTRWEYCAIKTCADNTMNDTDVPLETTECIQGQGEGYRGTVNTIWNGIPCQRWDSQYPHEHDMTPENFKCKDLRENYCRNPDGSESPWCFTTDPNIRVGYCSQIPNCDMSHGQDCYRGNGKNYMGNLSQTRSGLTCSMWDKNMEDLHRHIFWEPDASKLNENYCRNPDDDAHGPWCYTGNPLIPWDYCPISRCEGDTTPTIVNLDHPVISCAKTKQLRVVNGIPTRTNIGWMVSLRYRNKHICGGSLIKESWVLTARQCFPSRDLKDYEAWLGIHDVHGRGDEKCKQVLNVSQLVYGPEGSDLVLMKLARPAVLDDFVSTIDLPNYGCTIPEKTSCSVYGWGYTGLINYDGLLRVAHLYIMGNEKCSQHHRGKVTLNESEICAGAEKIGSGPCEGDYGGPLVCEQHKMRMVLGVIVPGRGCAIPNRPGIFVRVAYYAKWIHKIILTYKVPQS

As to B1, in experiment [1], the binding result is given as “binds”.
In general, EC50 refers to the concentration needed to bring the measured effect to its halfway point. Lower therefore signals a more potent agent. As for B2, the figures for the binding result in experiment [2] and in experiment [3] were “no binding” and “binds”, respectively. For the same molecule, the “ADCC, specific lysis of MKN-45 cells, EC50” value in experiment [4] turned out to be 0.005 µg/mL. In experiment [4], the “antibody-induced proliferation of BxPC3 cells, percentage of the proliferation obtained with 75 ng/ml HGF” value is less than 20%. The EC50 in experiment [5] stood at 0.068 µg/mL; in [6], 0.047 µg/mL; in experiment [7] it was 0.055 µg/mL; in experiment [8], 0.05 µg/mL; in experiment [9] it was 0.047 µg/mL; in experiment [10], 0.047 µg/mL. Moreover, the EC50 in experiment [11] was found to be 0.045 µg/mL.
B3: the “ADCC, specific lysis of MKN-45 cells, EC50” value in [4] was found to be 0.0043 µg/mL. For the same molecule, the EC50 in experiment [12] is 0.034 µg/mL; in experiment [6], greater than 0.04 µg/mL; in experiment [13] it was 0.05 µg/mL; in experiment [9] it was greater than 0.04 µg/mL; in experiment [10], greater than 0.04 µg/mL; in [11], 0.042 µg/mL. The EC50 amounted to 0.07 µg/mL in [14] and 0.05 µg/mL in experiment [15].
Take B4: the binding result in experiment [2] is “no binding”.
